# From patent US20250074980A1 (BRIGHAM AND WOMEN S HOSPITAL, published 2025)
# T1: His-tagged CEACAM1 (human, UniProt P13688 35-428)
# T1 construct: 45 kDa SPR analyte; also called CEACAM1-HIS; CEACAM1 analyte
# T1 sequence: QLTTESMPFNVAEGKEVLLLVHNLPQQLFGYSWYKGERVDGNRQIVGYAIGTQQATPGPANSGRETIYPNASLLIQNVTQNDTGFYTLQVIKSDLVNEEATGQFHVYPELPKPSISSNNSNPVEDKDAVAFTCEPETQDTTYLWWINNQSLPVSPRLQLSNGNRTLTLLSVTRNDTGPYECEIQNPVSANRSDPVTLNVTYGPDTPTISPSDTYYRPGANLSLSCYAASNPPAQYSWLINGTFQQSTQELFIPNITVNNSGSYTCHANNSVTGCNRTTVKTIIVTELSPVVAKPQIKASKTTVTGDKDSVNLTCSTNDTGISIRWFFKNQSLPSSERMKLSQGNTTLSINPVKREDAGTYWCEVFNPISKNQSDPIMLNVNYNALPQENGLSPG
# Biological target: T1, His-tagged CEACAM1
# Assay: SPR single-cycle, IgG captured
# Experimental: As an alternative approach to assess the binding of the 36 antibody combinations and the three control antibodies to CEACAM1, a kinetic analysis was performed on a Biacore T200 (serial no. 1909913) running Biacore T200 Evaluation Software V2.0.1 (Uppsala, Sweden). All experiments were run at 25° C. with HBS-P+ running buffer (pH 7.4) (GE Healthcare, cat. no. BR100671). All kinetic experiments were performed using His-tagged CEACAM1 as the analyte. For all experiments, antibodies were immobilized onto a Series S Protein A sensor chip surface. For kinetic experiments, the amount of immobilized/captured ligand was limited to avoid mass transfer effects at the surface of the chip with the surface ideally having an analyte binding level (Rₘₐₓ) of 50-150 RUs. Using a MW of 45 kDa for the CEACAM1 analyte, 150 kDa for the antibody ligand (estimated value for IgG), 50 RU for Rmax and the stoichiometry (Sm) as 2 due to the ability of each antibody to bind 2 target molecules, a target response level of ˜75 RUs was set for capture of all the sample antibodies.
# Single cycle analysis of the 36 antibody combinations and the three control antibodies was performed on purified antibodies (Vκ1 to Vκ6 variants) or on the supernatants of the transiently transfected HEK EBNA cells (Vκ7 to Vκ12 variants). In some instances, where supernatant was not available, purified chimeric antibody VH0/Vκ0 was spiked into HEK EBNA culture medium to use as a positive control. Antibodies were diluted in HBS-P+ to a concentration of 1 μg/ml (as determined by an IgG quantitation ELISA). At the start of each cycle, antibodies were loaded onto Fc2, Fc3 and Fc4 of a protein A chip and IgG captured at a flow rate of 8 μl/min to give an RU of ˜75. The surface was then allowed to stabilize. Single cycle kinetic data was obtained at a flow rate of 50 μl/min to minimize any potential mass transfer effects. Multiple repeats of the chimeric antibody VH0/Vκ0 were performed to check the stability of the surface and analyte over the kinetic cycles. The signal from the reference channel Fc1 (no antibody) was subtracted from that of Fc2, Fc3 and Fc4 to correct for differences in non-specific binding to a reference surface. A 5 point 2-fold dilution range from 3.125 to 50 nM CEACAM1 without regeneration between each concentration was used.
Kd [nM],relative KD to VH0/Vκ0,binding result,Binder
64,1.5,,"VH1/Vκ0 (antibody, IgG4, V domains shown, IgG4 (S241P), kappa; also called VH1/Vκ0 (control)) VH: EVQLLESGGGLVQPGGSLRLSCAASGFIFSSHGMSWVRQAPGKGLEWVATISSGGTYTYYPDSVKGRFTISRDNSKNTLYLQMNSLKAEDTAMYYCARHDFDYDAAWFAYWGQGTLVTVSS VL: QIVLTQSPALMSASPGVKVTMTCSANSSVSYMYWYRQKPRSSPKPWIYLTSNLASGVPARFSGSGSGTSYSLTISSMEAEDAATYYCQQWSSNPPTFGSGTKLEIK"
49,1.2,,"VH0/Vκ1 (antibody, IgG4, V domains shown, IgG4 (S241P), kappa; also called VH0/Vκ1 (control)) VH: EVQLVESGGDLVKPGGSLKLACAASGFIFSSHGMSWVRQTPDKRLEWVATISSGGTYTYYPDSVKGRFTISRDNDKNTLYLQMNSLKSEDTAMYYCARHDFDYDAAWFAYWGQGTLVTVSS VL: QIVLTQSPALLSLSPGERATMSCSANSSVSYMYWYRQKPGQAPKPWIYLTSNLASGVPARFSGSGSGTDYTLTISSLEAEDFATYYCQQWSSNPPTFGQGTKLEIK"
,,no binding (tested: 50 nM),"VH2/Vκ6 (antibody, IgG4, V domains shown, IgG4 (S241P), kappa) VH: EVQLLESGGGLVQPGGSLRLSCAASGFIFSSHGMSWVRQAPGKGLEWVATISSGGTYTYYPDSVKGRFTISRDNSKNTLYLQMNSLRAEDTAMYYCARHDFDYDAAWFAYWGQGTLVTVSS VL: DIQLTQSPSFLSASVGDRVTITCRANSSVSYMAWYQQKPGKAPKLLIYLTSNLQSGVPSRFSGSGSGTEFTLTISSLQPEDFATYYCQQWSSNPPTFGQGTKLEIK"
,,no binding (tested: 50 nM),"VH4/Vκ6 (antibody, IgG4, V domains shown, IgG4 (S241P), kappa) VH: EVQLLESGGGLVQPGGSLRLSCAASGFIFSSHGMSWVRQAPGKGLEWVSTISSGGTYTYYADSVKGRFTISRDNSKNTLYLQMNSLRAEDTAVYYCARHDFDYDAAWFAYWGQGTLVTVSS VL: DIQLTQSPSFLSASVGDRVTITCRANSSVSYMAWYQQKPGKAPKLLIYLTSNLQSGVPSRFSGSGSGTEFTLTISSLQPEDFATYYCQQWSSNPPTFGQGTKLEIK"
,,no binding (tested: 50 nM),"VH3/Vκ6 (antibody, IgG4, V domains shown, IgG4 (S241P), kappa) VH: EVQLLESGGGLVQPGGSLRLSCAASGFIFSSHGMSWVRQAPGKGLEWVATISSGGTYTYYADSVKGRFTISRDNSKNTLYLQMNSLRAEDTAMYYCARHDFDYDAAWFAYWGQGTLVTVSS VL: DIQLTQSPSFLSASVGDRVTITCRANSSVSYMAWYQQKPGKAPKLLIYLTSNLQSGVPSRFSGSGSGTEFTLTISSLQPEDFATYYCQQWSSNPPTFGQGTKLEIK"
,,no binding (tested: 50 nM),"VH1/Vκ6 (antibody, IgG4, V domains shown, IgG4 (S241P), kappa) VH: EVQLLESGGGLVQPGGSLRLSCAASGFIFSSHGMSWVRQAPGKGLEWVATISSGGTYTYYPDSVKGRFTISRDNSKNTLYLQMNSLKAEDTAMYYCARHDFDYDAAWFAYWGQGTLVTVSS VL: DIQLTQSPSFLSASVGDRVTITCRANSSVSYMAWYQQKPGKAPKLLIYLTSNLQSGVPSRFSGSGSGTEFTLTISSLQPEDFATYYCQQWSSNPPTFGQGTKLEIK"

# Biological target: T1, His-tagged CEACAM1
# Assay: SPR single-cycle, supernatant IgG captured
# Experimental: In order to assess the binding of the humanized, affinity matured reformatted lead IgGs, single-cycle kinetics analysis was performed on crude supernatants using a Biacore T200 running Biacore T200 Control Software V2.0.1 and Biacore T200 Evaluation Software V3.0. Antibodies were diluted in HBS-P+ to a final concentration of 0.5 μg/ml. At the start of each cycle, antibodies were loaded onto Fc2, Fc3 and Fc4 of the Protein A chip. IgGs were captured at a flow rate of 10 μl/min to give an immobilisation level (RL) of ˜100 RU (a level calculated to obtain a Rₘₐₓ of ˜50-150 RU once the analyte is bound). The surface was then allowed to stabilize. Single-cycle kinetics data was obtained with CEACAM1 as the analyte at a flow rate of 80 μl/min to minimize any potential mass transfer effects. Multiple repeats with the parent (VH1/Vκ8 S29A) antibody were performed to check the stability of the surface and analyte over the kinetic cycles. The signal from the reference channel Fc1 (no antibody) was subtracted from that of Fc2, Fc3 and Fc4 to correct for differences in non-specific binding to the reference surface. A three point, two-fold dilution range from 70 nM to 280 nM CEACAM1 without regeneration between each concentration was used. The signal from each antibody blank run (no CEACAM1) was subtracted to correct for differences in surface stability. The association phase for the three injections of increasing concentrations of CEACAM1 was monitored for 80 seconds each time and a single dissociation phase was measured for 150 seconds following the last injection of CEACAM1. Regeneration of the Protein A surface was conducted using two injections of 10 mM glycine-HCL pH 1.5 followed by a stabilization period of 250 seconds.
Kd [nM],koff [s⁻¹],kon [M⁻¹ s⁻¹],relative KD to parent,Binder
210,0.018,86000,2.4,"9B3_9E5_8H3/CP08F05 (antibody, IgG4, V domains shown, IgG4 (S241P), kappa) VH: EVQLLESGGGLVQPGGSLRLSCAASGFTFNAHAISWVRQAPGKGLEWVATISSGGTYTYYPDSVKGRFTISRDNSKNTLYLQMNSLKAEDTAMYYCARHGFDYFPYWFAHWGQGTLVTVSS VL: EIVLTQSPATLSLSPGERATLSCRANSAVSYMYWYQQKPGQAPRPWIYLTSNRATGVPARFSGSGSGTDYTLTISSLEPEDFAVYYCQQWTSNPPTFGQGTKLEIK"
95,0.012,130000,5.9,"9B3_9E5/CP08F05 (antibody, IgG4, V domains shown, IgG4 (S241P), kappa) VH: EVQLLESGGGLVQPGGSLRLSCAASGFTFNAHAISWVRQAPGKGLEWVATISSGGTYTYYPDSVKGRFTISRDNSKNTLYLQMNSLKAEDTAMYYCARHGFDYDAAWFAYWGQGTLVTVSS VL: EIVLTQSPATLSLSPGERATLSCRANSAVSYMYWYQQKPGQAPRPWIYLTSNRATGVPARFSGSGSGTDYTLTISSLEPEDFAVYYCQQWTSNPPTFGQGTKLEIK"
150,0.021,140000,3.8,"9B3_9E5/Vκ8 S29A (antibody, IgG4, V domains shown, IgG4 (S241P), kappa) VH: EVQLLESGGGLVQPGGSLRLSCAASGFTFNAHAISWVRQAPGKGLEWVATISSGGTYTYYPDSVKGRFTISRDNSKNTLYLQMNSLKAEDTAMYYCARHGFDYDAAWFAYWGQGTLVTVSS VL: EIVLTQSPATLSLSPGERATLSCRANSAVSYMYWYQQKPGQAPRPWIYLTSNRATGVPARFSGSGSGTDYTLTISSLEPEDFAVYYCQQWSSNPPTFGQGTKLEIK"
270,0.022,82000,1.9,"9B3_9E5_8H3/CP08E05 (antibody, IgG4, V domains shown, IgG4 (S241P), kappa) VH: EVQLLESGGGLVQPGGSLRLSCAASGFTFNAHAISWVRQAPGKGLEWVATISSGGTYTYYPDSVKGRFTISRDNSKNTLYLQMNSLKAEDTAMYYCARHGFDYFPYWFAHWGQGTLVTVSS VL: EIVLTQSPATLSLSPGERATLSCRANSAVSYMYWYQQKPGQAPRPWIYLTSNRATGVPARFSGSGSGTDYTLTISSLEPEDFAVYYCQQWTTNPPTFGQGTKLEIK"
210,0.02,95000,2.4,"9B3_9E5_8H3/Vκ8 S29A (antibody, IgG4, V domains shown, IgG4 (S241P), kappa) VH: EVQLLESGGGLVQPGGSLRLSCAASGFTFNAHAISWVRQAPGKGLEWVATISSGGTYTYYPDSVKGRFTISRDNSKNTLYLQMNSLKAEDTAMYYCARHGFDYFPYWFAHWGQGTLVTVSS VL: EIVLTQSPATLSLSPGERATLSCRANSAVSYMYWYQQKPGQAPRPWIYLTSNRATGVPARFSGSGSGTDYTLTISSLEPEDFAVYYCQQWSSNPPTFGQGTKLEIK"
